Assay results taken from the Human Domainome abundance scans (Beltran et al. 2025).

B1: POU domain, class 4, transcription factor 3, residues 185 to 256; numbered along this chain, Q15319 (parent)
chain: RELEAFAERFKQRRIKLGVTQADVGAALANLKIPGVGSLSQSTICRFESLTLSHNNMIALKPVLQAWLEEAE

Variants of: B1
Assay: abundance fitness (aPCA) (normalised: wild type 0, dead -1); higher = more abundant; growth selection in yeast, the domain comes from the species named
Conditions: Homo sapiens

Abundance fitness, by site and new letter:
V19: G -0.391 | Q -0.151 | S -0.14 | F 0.03 | L 0.011 | P -0.835 | M 0.12 | H 0.007 | K 0.078 | Y -0.01
G18: W -1.05 | N -0.205 | C -0.572 | Y -0.928 | S -0.435 | R -0.249 | L -0.703 | A -0.43 | K -0.296 | Q -0.193 | T -0.884 | V -0.997 | E -0.514 | D -0.463 | F -0.784
V24: G -0.858 | P -0.842 | H -0.917 | D -0.675 | E -1.04 | C -0.223 | K -0.937 | R -0.83 | T -0.565 | F -0.709 | A -0.142 | S -0.785 | W -0.61 | L -0.137 | I -0.123 | M -0.301 | Q -0.825 | Y -0.962
Q21: C -0.243 | V -0.002 | P -0.238 | R -0.31 | F -0.413 | L -0.192 | K -0.285 | W -0.331 | N 0.112 | H 0.294 | G -0.429 | T -0.193 | M -0.502 | I -0.035 | E 0.081 | D -0.262 | A -0.086 | S -0.289
D23: H -0.017 | M -0.135 | F -0.208 | T -0.307 | G -0.246 | N -0.112 | Y -0.411 | K -0.121
L17: I -0.359 | K -0.466 | H -0.871 | V -0.682 | Y -0.448 | M -0.099 | R -0.543 | N -0.474 | F -0.405 | Q -0.983
I15: Y -0.32 | T 0.02 | V -0.098 | W -0.527 | S -0.183
